Results reported in patent EP1192182B1, “PITUITARY ADENYLATE CYCLASE ACTIVATING PEPTIDE (PACAP) RECEPTOR 3 (R3) AGONISTS AND THEIR PHARMACOLOGICAL METHODS OF USE” (priority 1999, dated 2001).
Non-standard residues stand in square brackets, D forms with d. Residues, ends and D or L forms follow the SMILES beside them. No end group written: not given here. Nle = CCCC[C@H](N)C(=O)O

Biological target: T1, PACAP-R3 (human, UniProt P41587 24-438)
T1 sequence (looked up): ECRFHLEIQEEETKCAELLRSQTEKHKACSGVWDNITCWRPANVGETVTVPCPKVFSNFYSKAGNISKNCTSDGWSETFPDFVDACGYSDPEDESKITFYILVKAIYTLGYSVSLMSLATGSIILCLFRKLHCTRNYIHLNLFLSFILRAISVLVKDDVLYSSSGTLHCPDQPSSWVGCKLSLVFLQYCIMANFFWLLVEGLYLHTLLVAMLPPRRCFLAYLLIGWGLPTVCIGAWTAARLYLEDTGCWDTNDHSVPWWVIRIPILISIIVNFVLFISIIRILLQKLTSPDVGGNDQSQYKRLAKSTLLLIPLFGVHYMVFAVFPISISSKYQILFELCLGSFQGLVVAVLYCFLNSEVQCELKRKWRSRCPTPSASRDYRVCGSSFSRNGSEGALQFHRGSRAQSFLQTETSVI
Assay: cell-based or functional assay
Details: not given

HSDAVFTDNYTRLRKQLAAKKYLNDIKKNQ [R3P35] and Ac-HSDAVFTENYTKLRKQ[Nle]AAKKYLNDLKKGGT-NH2 [R3P0] cannot be ordered by “R3 Selectivity” value: greater than 40 ratio for the first, greater than 250 ratio for the second.

First: HSDAVFTDNYTRLRKQMAAKKYLNSIKNKI [R3P159]
Second: HSDAVFTDNYTRLRKQMAAKKYLNSIKNKH [R3P158]
The “R3 Selectivity” value of the first is higher: 400 ratio for the first, 90 ratio for the second.

Compared with HSDAVFTDNYTRLRKQLAAKKYLNDIKKKRY [R3P36], HSDAVFTDNYTRLRKQMAVKKYLNSIKN [R3P42] is lower in “R3 Selectivity” value: greater than 200 ratio for the first, 10 ratio for the second.

First: HSDAVFTDNYTRLRKQMAAKKYLNSIKNKK [R3P160]
Second: HSDAVFTDNYTRLRKQMAAKKYLNSIKNKG [R3P157]
The “R3 Selectivity” value of the first is higher: 500 ratio for the first, 170 ratio for the second.

Going from HSDAVFTDNYTRLRKQMAVKKYLNSIKK [R3P41] to HSDAVFTDNYTRLRKQLAAKKYLNDIKK [R3P33], the “R3 Selectivity” value rises from 100 ratio to greater than 200 ratio.

Going from HSDAVFTDNYTRLRKQMAVKKYLNSILK [R3P43] to HSDAVFTDNYTRLRKQMAAKKYLNSIKNKN [R3P163], the “R3 Selectivity” value rises from 10 ratio to 200 ratio.

HSDAVFTDNYTRLRKQMAAKKYLNSIKNKF [R3P156] and Ac-HSDAVFTENYTKLRKQLAAKKYLNDLKKGGT-NH2 [R3P1] cannot be ordered by “R3 Selectivity” value: 100 ratio for the first, greater than 50 ratio for the second.

HSDAVFTDNYTRLRKQLAAKKYLNDIKKQ [R3P34] and HSDAVFTDNYTRLRKQLAAKKYLNDIKKGG [R3P31] cannot be ordered by “R3 Selectivity” value: greater than 70 ratio for the first, greater than 300 ratio for the second.

Compared with HSDAVFTDNYTRLRKQMAAKKYLNDIKKGGT [R3P20], HSDAVFTDNYTRLRKQLAVKKYLNDIKKGGT [R3P21] is lower in “R3 Selectivity” value: 230 ratio for the first, 60 ratio for the second.

Going from HSDAVFTDNYTRLRKQLAAKKYLNDIKNGGT [R3P24] to HSDAVFTDNYTRLRKQLAVKKYLNSIKKGGT [R3P25], the “R3 Selectivity” value falls from 34 ratio to 20 ratio.

Going from HSDAVFTDNYTRLRKQLAVKKYLNDIKNGGT [R3P29] to HSDAVFTDNYTRLRKQLAAKKYLNSIKNGGT [R3P30], the “R3 Selectivity” value falls from greater than 200 ratio to 50 ratio.

Going from HSDAVFTDNYTRLRKQMAAKKYLNSIKKGGT [R3P26] to HSDAVFTDNYTRLRKQLAAKKYLNSIKKGGT [R3P22], the “R3 Selectivity” value falls from greater than 180 ratio to 24 ratio.

Going from HSDAVFTDNYTELRKQMAVKKYLNSILN [R3P44] to HSDAVFTDNYTRLRKQLAAKKYLNDIKKG [R3P32], the “R3 Selectivity” value rises from 6 ratio to 200 ratio.

In order of rising “R3 EC50” value:
1. HSDAVFTDNYTRLRKQMAAKKYLNSIKNKH [R3P158]  0.07 nM
2. HSDAVFTDNYTRLRKQMAAKKYLNSIKNKN [R3P163]  0.2 nM
3. HSDAVFTDNYTRLRKQMAAKKYLNSIKNKL [R3P161]  0.2 nM
4. HSDAVFTDNYTRLRKQMAAKKYLNSIKNKP [R3P164]  0.3 nM
5. HSDAVFTDNYTRLRKQMAAKKYLNSIKNKG [R3P157]  0.3 nM
6. HSDAVFTDNYTRLRKQMAAKKYLNSIKNKI [R3P159]  0.5 nM
7. HSDAVFTDNYTRLRKQMAAKKYLNSIKNKF [R3P156]  1 nM

Biological target: T2, human PACAP/VIP R2 (PACAP R3) receptor (human, UniProt P41587 24-438)
T2 sequence (looked up): T1 sequence (looked up)
Assay: cell-based or functional assay
Details: not given

In order of rising “R3 EC50, nM (cAMP SPA)” value:
1. HSDAVFTDNYTRLRKQMAAKKYLNSIKNKW [rR3P169]  0.2 nM
2. HSDAVFTDNYTRLRKQVAAKKYLQSIKNKRYSWCEPGWCR [rR3P171]  0.4 nM
3. HSDAVFTDNYTRLRKQMAAKKYLNSIKNKQ [rR3P165]  0.5 nM
4. HSDAVFTDNYTRLRKQMAAKKYLNSIKNKT [rR3P167]  1 nM
5. HSDAVFTDNYTRLRKQMAAKKYLNSIKNRI-NH2 [PAC27]  1.1 nM
6. HSDAVFTDDYTRLRKEVAAKKYLESIKDKRY [R3P172]  2.6 nM
7. ESDGIFTDSYSRYRKQMAVKKYLAAVL [R3P173]  200 nM

In order of falling “R3 Selectivity” value:
1. HSDAVFTDNYTRLRKQVAAKKYLQSIKNKRYSWCEPGWCR [rR3P171]  200 ratio
2. HSDAVFTDDYTRLRKEVAAKKYLESIKDKRY [R3P172]  29 ratio
3. HSDAVFTDNYTRLRKQMAAKKYLNSIKNRI-NH2 [PAC27]  1.4 ratio

System: not listed separately
Assay: Peptide-induced elevation of plasma insulin after IVGTT
Format: in vivo
Details: one minute after IVGTT (0.4g/kg glucose), 1 nmole/kg peptide i.v., Wistar rats
Procedure: Wistar rats are fasted overnight (17 hrs) and then anesthetized with pentobarbital (0.1 ml/100 g BW). Glucose (0.4 g/kg dissolved in 1% human albumin-saline) +/- peptide (dissolved in 1% human albumin-saline) is injected intravenously into the tail vein. The rats are eye-bled 1 minute after the injection and 50-100ul of the plasma are assayed for insulin level with the Linco RIA kit (Linco Research, Inc., St. Charles, MO).
In accordance with the protocol of example 2 above, overnight fasted Wistar rats were anesthetized with pentobarital; i.v. injected with glucose ± peptide and eye bled after 1 minute. N=12 rats/group. […] The peptide or vehicle was given i.v. followed by a glucose load given i.p. in accordance with example 3. The plasma glucose was followed over the time period indicated.
Plasma insulin: Data are expressed as % of plasma insulin one minute after IVGTT (0.4g/kg glucose) with either saline, 0.1nmol/kg P51, P55, P60, P66 or 1 nmole/kg of the other peptides including peptides which are not part of the present invention in Wistar rats. Blood was drawn from the eye and insulin was measured with the rat insulin RIA kit (Linco Research, Inc, St. Charles, MO).

In the case of `CC(C)C[C@H](NC(=O)[C@H](CCC(N)=O)NC(=O)[C@H](CCCCN)NC(=O)[C@H](CCCNC(=N)N)NC(=O)[C@H](CC(C)C)NC(=O)[C@H](CCCCN)NC(=O)[C@@H](NC(=O)[C@H](Cc1ccc(O)cc1)NC(=O)[C@H](CC(N)=O)NC(=O)[C@H](CCC(=O)O)NC(=O)[C@@H](NC(=O)[C@H](Cc1ccccc1)NC(=O)[C@@H](NC(=O)[C@H](C)NC(=O)[C@H](CC(=O)O)NC(=O)[C@H](CO)NC(=O)[C@@H](N)Cc1c[nH]cn1)C(C)C)[C@@H](C)O)[C@@H](C)O)C(=O)N[C@@H](C)C(=O)N[C@@H](C)C(=O)N[C@@H](CCCCN)C(=O)N[C@@H](CCCCN)C(=O)N[C@@H](Cc1ccc(O)cc1)C(=O)N[C@@H](CC(C)C)C(=O)N[C@@H](CC(N)=O)C(=O)N[C@@H](CC(=O)O)C(=O)N[C@@H](CC(C)C)C(=O)N[C@@H](CCCCN)C(=O)N[C@@H](CCCCN)C(=O)NCC(=O)NCC(=O)N[C@H](C(=O)N[C@@H](CO)C(=O)N[C@@H](Cc1c[nH]c2ccccc12)C(=O)N[C@@H](CS)C(=O)N[C@@H](CCC(=O)O)C(=O)N1CCC[C@H]1C(=O)NCC(=O)N[C@@H](Cc1c[nH]c2ccccc12)C(=O)N[C@@H](CS)C(=O)N[C@@H](CCCNC(=N)N)C(=O)O)[C@@H](C)O` [Peptide R3P19] (H-HSDAVFTENYTKLRKQLAAKKYLNDLKKGGTSWCEPGWCR-OH; C-terminus assumed), the “Plasma Insulin (% of Basal)” value is reported as 285 % of Basal.
